From article PMC10536547, “Investigation of the Effect on the Albumin Binding Moiety for the Pharmacokinetic Properties of ^68Ga-, ^205/206Bi-, and ^177Lu-Labeled NAPamide-Based Radiopharmaceuticals” (Pharmaceuticals, 2023) come the findings set out here.

Data set [1] is described as follows: Ex vivo organ distribution in B16F10 tumor-bearing mice. Further details: species or system C57BL/6 mice. To be noted: mouse, iv. The protocol:
(§1) To accomplish post-imaging organ distribution investigations, 9.36 ± 0.67, 6.34 ± 1.07 and 2.39 ± 0.19 MBq of ^68Ga-labeled-^177Lu-labeled-and ^205/206Bi-labeled […]-based probes were iv. Injected, respectively, into the lateral tail vein of both the tumor-naive and the melanoma tumor-carrying experimental mice. Ninety-minutes ([^68Ga]Ga-DOTA-[…]-DOTA-[…]; [^205/206Bi]Bi-DOTA-[…]; [^205/206Bi]Bi-DOTA-[…]) and 24 h ([^177Lu]Lu-DOTA-[…]; [^177Lu]Lu-DOTA-[…]) post tracer administration, mice were sacrificed under Forane-induced inhalation anesthesia. Then, the tumor, the blood, and selected organs and tissues were removed, weighed wet and measured for radioactivity applying a calibrated gamma counter (Perkin-Elmer Packard 406 Cobra, Waltham, MA, USA). The counts per minute (CPM) figures for each sample were converted to percent of administered dose per gram of tissue (%ID/g).

Data set [2] can be described thus: in vivo. Further details: species or system C57BL/6 mice. To be noted: C57BL/6, mouse, iv, total radioactivity. The protocol: At 9 ± 1 days post tumor implantation, at an average tumor bulk of approximately 120 mm^3, the tumor-naive and the B16F10 tumor-bearing mice were intravenously (iv.) injected with 9.36 ± 0.67 MBq of [^68Ga]Ga-DOTA-NAPamide or [^68Ga]Ga-DOTA-IPB-NAPamide via the lateral tail vein. After a 90-min-long tracer distribution time, the study mice were subjected to whole-body static PET acquisition (10 min scans at each bed position) under isoflurane-induced anesthesia (AbbVie, Budapest, Hungary; OGYI-T-1414/01) applying a preclinical MiniPET-II small animal PET device (Division of Nuclear Medicine and Translational Imaging, Department of Medical Imaging, Faculty of Medicine, University of Debrecen).
Three-dimensional ordered-subsets expectation-maximization algorithm (3D OSEM) was used for PET image reconstruction. Three-dimensional ellipsoidal volume of interests (VOI) were manually placed around the border of the organ/tissue activity to calculate their radiotracer concentration. The radiopharmaceutical accumulation was presented as standardized uptake values (SUVs). The following formula was applied for the determination of the SUV parameter:SUV (g/mL) = [VOI activity (Bq/mL)]/[administered activity (Bq)/animal weight (g)]

The format of data set [3] is physicochemical. How it is done: After the dilution of the purified radiotracers ([^68Ga]Ga-DOTA-[…]-DOTA-[…], [^205/206Bi]Bi-DOTA-[…], [^205/206Bi]Bi-DOTA-[…], [^177Lu]Lu-DOTA-[…], [^177Lu]Lu-DOTA-[…]) (50 μL, 1-3 MBq) with 450 μL water, 500 μL n-octanol was added to each sample. […] The activity of the samples from n-octanol phase (20 μL) and aqueous phase (20 μL) was analyzed with gamma counter. The procedure was performed in triplicate. For [^68Ga]Ga-DOTA-[…]-DOTA-[…], [^205/206Bi]Bi-DOTA-[…], [^205/206Bi]Bi-DOTA-[…], [^177Lu]Lu-DOTA-[…], and for [^177Lu]Lu-DOTA-[…] the logP values were -3.46, -2.12, -3.65, -2.32, -2.6, 1.26, respectively.

Data set [4] has as its system B16F10 tumor-bearing mice. The data set can be described thus: Ex vivo organ distribution in B16F10 tumor-bearing mice. Further details: species or system C57BL/6 mice. As to conditions: mouse, iv. How it is done: as §1

Broadly, the tissue uptake is the share of the injected amount in each gram of the tissue. A high value points to high uptake. For the molecule `CCCC[C@H](NC(C)=O)C(=O)N[C@@H](CC(=O)O)C(=O)N[C@@H](Cc1c[nH]cn1)C(=O)N[C@H](Cc1ccccc1)C(=O)N[C@@H](CCCNC(=N)N)C(=O)N[C@@H](Cc1c[nH]c2ccccc12)C(=O)NCC(=O)N[C@@H](CCCCNC(=O)[C@H](CCCCNC(=O)CCCc1ccc(I)cc1)NC(=O)CN1CCN(CC(=O)O)CCN(CC(=O)O)CCN(CC(=O)O)CC1)C(N)=O` [[^68Ga]Ga-DOTA-IPB-NAPamide, metal not drawn], the tissue uptake at 1.5 h in data set [1] (B16-F10 tumor uptake) is 5.06 ± 1.08 %ID/g; in data set [1] (blood uptake) it was 14.2 ± 1.87 %ID/g; in data set [1] (brain uptake), 0.28 ± 0.02 %ID/g; in data set [1] (fat uptake), 2.02 ± 0.65 %ID/g; in data set [1] (heart uptake) it was 5.14 ± 0.72 %ID/g; in data set [1] (kidney uptake) it was 4.57 ± 0.88 %ID/g. Also, the tissue uptake at 1.5 h in data set [1] (large intestine uptake) was determined as 0.92 ± 1.25 %ID/g; in data set [1] (liver uptake) it was 2.64 ± 0.11 %ID/g; in data set [1] (lung uptake), 6.32 ± 0.91 %ID/g; in data set [1] (muscle uptake) it was 1.01 ± 0.18 %ID/g; in data set [1] (small intestine uptake) it was 2.41 ± 0.03 %ID/g; in data set [1] (spleen uptake), 2.37 ± 0.25 %ID/g. Besides, the tissue uptake at 1.5 h in data set [1] (stomach uptake) came out at 2.97 ± 1.38 %ID/g. For the same molecule, the SUV at 1.5 h in data set [2] turned out to be 1.31 ± 0.24 SUV.
For orientation: logP means the decadic logarithm of the partition coefficient of the neutral form, usually between octanol and water. The molecule `CCCC[C@H](NC(C)=O)C(=O)N[C@@H](CC(=O)O)C(=O)N[C@@H](Cc1c[nH]cn1)C(=O)N[C@H](Cc1ccccc1)C(=O)N[C@@H](CCCNC(=N)N)C(=O)N[C@@H](Cc1c[nH]c2ccccc12)C(=O)NCC(=O)N[C@@H](CCCCNC(=O)[C@H](CCCCNC(=O)CCCc1ccc(I)cc1)NC(=O)CN1CCN(CC(=O)O)CCN(CC(=O)O)CCN(CC(=O)O)CC1)C(N)=O` [[^68Ga]Ga-DOTA-IPB-NAPamide] [metal not drawn] came in with a logP in data set [3] of −2.12.
Regarding `CCCC[C@H](NC(C)=O)C(=O)N[C@@H](CC(=O)O)C(=O)N[C@@H](Cc1c[nH]cn1)C(=O)N[C@H](Cc1ccccc1)C(=O)N[C@@H](CCCNC(=N)N)C(=O)N[C@@H](Cc1c[nH]c2ccccc12)C(=O)NCC(=O)N[C@@H](CCCCNC(=O)CN1CCN(CC(=O)O)CCN(CC(=O)O)CCN(CC(=O)O)CC1)C(N)=O` [[^68Ga]Ga-DOTA-NAPamide, metal not drawn, reference compound], the tissue uptake at 1.5 h in data set [1] (blood uptake) was found to be 0.35 ± 0.1 %ID/g; in data set [1] (brain uptake) it was 0.03 ± 0.01 %ID/g; in data set [1] (heart uptake) it was 0.1 ± 0.06 %ID/g; in data set [1] (large intestine uptake) it was 0.3 ± 0.01 %ID/g; in data set [1] (lung uptake), 0.33 ± 0.06 %ID/g; in data set [1] (muscle uptake), 0.08 ± 0.02 %ID/g. The tissue uptake at 1.5 h in data set [1] (small intestine uptake) was determined as 0.35 ± 0.13 %ID/g; in data set [1] (stomach uptake) it was 0.24 ± 0.09 %ID/g. In addition, the SUV at 1.5 h in data set [2] was found to be 0.43 ± 0.09 SUV.
`CCCC[C@H](NC(C)=O)C(=O)N[C@@H](CC(=O)O)C(=O)N[C@@H](Cc1c[nH]cn1)C(=O)N[C@H](Cc1ccccc1)C(=O)N[C@@H](CCCNC(=N)N)C(=O)N[C@@H](Cc1c[nH]c2ccccc12)C(=O)NCC(=O)N[C@@H](CCCCNC(=O)CN1CCN(CC(=O)O)CCN(CC(=O)O)CCN(CC(=O)O)CC1)C(N)=O` [[^68Ga]Ga-DOTA-NAPamide] [metal not drawn, reference compound]: the logP in data set [3] is on record as −3.46. For the same molecule, in data set [4] (1.5 h), the B16-F10 tumor uptake is 1.18 ± 0.27 %ID/g, the fat uptake is 0.16 ± 0.03 %ID/g, the kidney uptake is 3.07 ± 0.35 %ID/g and the liver uptake is on record as 0.31 ± 0.08 %ID/g. Moreover, the spleen uptake in data set [4] (1.5 h) came out at 0.15 ± 0.02 %ID/g.
Turning to `CCCC[C@H](NC(C)=O)C(=O)N[C@@H](CC(=O)O)C(=O)N[C@@H](Cc1c[nH]cn1)C(=O)N[C@H](Cc1ccccc1)C(=O)N[C@@H](CCCNC(=N)N)C(=O)N[C@@H](Cc1c[nH]c2ccccc12)C(=O)NCC(=O)N[C@@H](CCCCNC(=O)[C@H](CCCCNC(=O)CCCc1ccc(I)cc1)NC(=O)CN1CCN(CC(=O)O)CCN(CC(=O)O)CCN(CC(=O)O)CC1)C(N)=O` [[^177Lu]Lu-DOTA-IPB-NAPamide, metal not drawn], the tissue uptake at 24 h in data set [1] (B16-F10 tumor uptake) is 4.16 ± 1.86 %ID/g; in data set [1] (blood uptake), 3.71 ± 0.73 %ID/g; in data set [1] (brain uptake), 0.08 ± 0.01 %ID/g; in data set [1] (fat uptake), 0.67 ± 0.34 %ID/g; in data set [1] (heart uptake), 1.3 ± 0.12 %ID/g; in data set [1] (kidney uptake), 5.58 ± 1.59 %ID/g. Further, the tissue uptake at 24 h is 0.61 ± 0.11 %ID/g in data set [1] (large intestine uptake); 1.97 ± 0.13 %ID/g in data set [1] (liver uptake); 2.5 ± 0.24 %ID/g in data set [1] (lung uptake); 0.33 ± 0.07 %ID/g in data set [1] (muscle uptake); 0.6 ± 0.03 %ID/g in data set [1] (small intestine uptake); 1.32 ± 0.2 %ID/g in data set [1] (spleen uptake). The tissue uptake at 24 h in data set [1] (stomach uptake) was 0.69 ± 0.11 %ID/g.
On to `CCCC[C@H](NC(C)=O)C(=O)N[C@@H](CC(=O)O)C(=O)N[C@@H](Cc1c[nH]cn1)C(=O)N[C@H](Cc1ccccc1)C(=O)N[C@@H](CCCNC(=N)N)C(=O)N[C@@H](Cc1c[nH]c2ccccc12)C(=O)NCC(=O)N[C@@H](CCCCNC(=O)CN1CCN(CC(=O)O)CCN(CC(=O)O)CCN(CC(=O)O)CC1)C(N)=O` [[^177Lu]Lu-DOTA-NAPamide, metal not drawn, reference compound], for which the tissue uptake at 24 h was 0.16 ± 0.15 %ID/g in data set [1] (B16-F10 tumor uptake); 0.01 ± 0.01 %ID/g in data set [1] (fat uptake); 0.01 %ID/g in data set [1] (heart uptake); 1.85 ± 0.79 %ID/g in data set [1] (kidney uptake); 0.24 ± 0.13 %ID/g in data set [1] (liver uptake); 0.04 ± 0.03 %ID/g in data set [1] (lung uptake). Further, the tissue uptake at 24 h in data set [1] (small intestine uptake) amounted to 0.01 ± 0.01 %ID/g; in data set [1] (spleen uptake), 0.07 ± 0.04 %ID/g.
As for `CCCC[C@H](NC(C)=O)C(=O)N[C@@H](CC(=O)O)C(=O)N[C@@H](Cc1c[nH]cn1)C(=O)N[C@H](Cc1ccccc1)C(=O)N[C@@H](CCCNC(=N)N)C(=O)N[C@@H](Cc1c[nH]c2ccccc12)C(=O)NCC(=O)N[C@@H](CCCCNC(=O)CN1CCN(CC(=O)O)CCN(CC(=O)O)CCN(CC(=O)O)CC1)C(N)=O` [[^177Lu]Lu-DOTA-NAPamide] [metal not drawn, reference compound], in data set [3], the logP is −2.6. Moreover, in data set [4] (24 h), the brain uptake was determined as 0.00 ± 0.00 %ID/g and the muscle uptake came out at 0.00 ± 0.00 %ID/g.
